According to patent CN114195890A (UNIV SHANGHAI TRAFFIC, dated 2022):

Target: T1, 抗原K27-3Ub (化学合成的K27连接泛素链蛋白) (UniProt P0CG48 1-76, ubiquitin units joined through K27 linkages (K27 of one ubiquitin to the C-terminus of the next); biotinylated (biotin-K27-3Ub) in the ELISA)
T1 construct: Chemically synthesised K27-linked tri-ubiquitin provided by the Liu Lei group, Tsinghua University; also called biotin-K27-3Ub; K27泛素链
Test: SPR, Biacore 8K, antibody captured on Protein A chip, K27-3Ub as analyte, 1:1 fit

B1: 全长抗体蛋白IgG.zl1901 (antibody, V domains shown)
VH: EVQLVESGAEVKKPGASVKVSCKASGYTFTSYYMHWVRQAPGQGLEWMGIINPSGGSTSYAQKFQGRVTMTRDTSTSTVYMELSSLRSEDTAVYYCARGLRAELLHYYYGMDVWGQGTTVTVSS
VL: not shown
notes: also called 全长抗体IgG.zl1901
- Kd: 3.66 nM
- koff: 0.00234 s⁻¹
